Data taken from article PMC8631942 (eLife, 2021).

Experiments:
[1] = molecular target: T1, His10-BTLA^ICD BTLA^FFFY, pre-phosphorylated (human, UniProt Q7Z6A9 190-289, Y226F | Y243F | Y257F, pre-phosphorylated with Fyn; lone tyrosine (Y282) in the ITSM); test: SPR; OpenSPR (Nicoya); pre-phosphorylated His10-tagged PD-1 or BTLA ICD immobilised on a Ni sensor chip (about 1500 RU); SH2 injected at 20-1000 nM, 20 μl/min; 20 mM HEPES, 150 mM NaCl, 5 mM imidazole, 0.05% Tween-20, 10% glycerol, pH 7.5; equilibrium analysis (Evaluate EC50, TraceDrawer); settings: both partners purified
T1 construct: BTLA intracellular domain, human, aa 190-289; triple-tyrosine mutant; Monomeric fraction of the gel filtration was used; also called BTLA-ITSM; source: E. coli (pET28A), purified (Ni-NTA, gel filtration); phosphorylated with purified Fyn; not shown: His10, N-terminal, kept
T1 sequence (looked up): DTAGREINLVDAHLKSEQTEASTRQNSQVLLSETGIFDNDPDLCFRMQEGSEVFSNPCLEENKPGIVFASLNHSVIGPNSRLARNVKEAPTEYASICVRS

[2] = molecular target: T2, His10-PD-1^ICD PD-1^FY, pre-phosphorylated (human, UniProt Q15116 194-288, Y223F, pre-phosphorylated with Fyn; the only tyrosine is in the ITSM (Y248)); test: as above; settings: both partners purified
T2 construct: Monomeric fraction of the gel filtration was used; also called PD-1-ITSM; phosphorylated PD-1-ITSM; source: E. coli (pET28A), purified (Ni-NTA, gel filtration); phosphorylated with purified Fyn; not shown: His10, N-terminal, kept
T2 sequence (looked up): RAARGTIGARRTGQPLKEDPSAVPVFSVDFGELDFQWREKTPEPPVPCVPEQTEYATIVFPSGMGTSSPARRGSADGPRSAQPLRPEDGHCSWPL

B1: SNAP-SHP1-cSH2 (domain or fragment)
chain: WYHGHMSGGQAETLLQAKGEPWTFLVRESLSQPGDFVLSVLSDQPKAGPGSPLRVTHIKVMCEGGRYTVGGLETFDSLTDLVEHFKKTGIEEASGAFVYLRQPY
A Kd [1] of 860 nM and a Kd [2] of 1700 nM were found for B1 in this work.
